# Experimental data taken from the supplement of paper PMC9233669.
# Fewer inactive variants are shown than the library holds.
# Key:
# biotinyl-Phe-oxazolone = assay: self-aminoacylation, catalytic enhancement (BFO) (fold over background); higher = more active; k-Seq, kA / k0A0; sequences stand for … in GGGAAUGGAUCCACAUCUACGAAUUC…UUCACUGCAGACUUGACGAAGCUG
# How it was run: (§1)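 Working in 50 μL HEPES/NaCl/KCl/MgCl2/CaCl2 buffer with 5% acetonitrile at pH 6.9–7.0, mutagenized RNA pools (0.43 μM; 21-nt variable region) were reacted with 2–1250 μM of each biotinyl-aminoacyl-oxazolone for 90 minutes at room temperature. Streptavidin capture followed, with quantification by triplicate qPCR and Illumina sequencing. Catalytic enhancement is reported as median kA over the uncatalyzed rate, the low-activity peak of a bimodal Gaussian fit to the data.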
# biotinyl-Ile-oxazolone = assay: self-aminoacylation, catalytic enhancement (BIO) (fold over background); higher = more active; k-Seq, kA / k0A0; sequences stand for … in GGGAAUGGAUCCACAUCUACGAAUUC…UUCACUGCAGACUUGACGAAGCUG
# How it was run: as §1
# biotinyl-Met-oxazolone = assay: self-aminoacylation, catalytic enhancement (BMO) (fold over background); higher = more active; k-Seq, kA / k0A0; sequences stand for … in GGGAAUGGAUCCACAUCUACGAAUUC…UUCACUGCAGACUUGACGAAGCUG
# How it was run: as §1
# biotinyl-Val-oxazolone = assay: self-aminoacylation, catalytic enhancement (BVO) (fold over background); higher = more active; k-Seq, kA / k0A0; sequences stand for … in GGGAAUGGAUCCACAUCUACGAAUUC…UUCACUGCAGACUUGACGAAGCUG
# How it was run: as §1
# biotinyl-Leu-oxazolone = assay: self-aminoacylation, catalytic enhancement (BLO) (fold over background); higher = more active; k-Seq, kA / k0A0; sequences stand for … in GGGAAUGGAUCCACAUCUACGAAUUC…UUCACUGCAGACUUGACGAAGCUG
# How it was run: as §1
# biotinyl-Trp-oxazolone = assay: self-aminoacylation, catalytic enhancement (BWO) (fold over background); higher = more active; k-Seq, kA / k0A0; sequences stand for … in GGGAAUGGAUCCACAUCUACGAAUUC…UUCACUGCAGACUUGACGAAGCUG
# How it was run: as §1
Sequence,self-aminoacylation (biotinyl-Phe-oxazolone),self-aminoacylation (biotinyl-Ile-oxazolone),self-aminoacylation (biotinyl-Met-oxazolone),self-aminoacylation (biotinyl-Val-oxazolone),self-aminoacylation (biotinyl-Leu-oxazolone),self-aminoacylation (biotinyl-Trp-oxazolone)
AUUCACCUCGGUCAUCCGGUG [Fam2.2 aminoacylation ribozyme variant],78.8,6.84,12.2,7.28,14,11.1
AUUCACCUCGGUCAUCGGGUA [Fam2.2 aminoacylation ribozyme variant],17,2.96,3.24,3.25,2.87,3.95
AUUCACCUGAGUCAUCGGGUG [Fam2.2 aminoacylation ribozyme variant],35.9,5.26,13,5.03,15,9.59
AUUCACCUGCGUCAUCGGGUG [Fam2.2 aminoacylation ribozyme variant],49.4,5.17,7.79,5.41,10.6,7.09
AUUCACCUGGGUCAUCAGGUG [Fam2.2 aminoacylation ribozyme variant],6.12,1.52,1.48,1.92,1.67,1.36
AUUCACCUGGGUCAUCGCGUG [Fam2.2 aminoacylation ribozyme variant],110,8.24,14.3,9.89,17.1,14.3
AUUCACCUGGGUCAUGGGGUG [Fam2.2 aminoacylation ribozyme variant],51.6,4.05,6.65,4.9,9.15,6.16
AUUCACCUGGGUCCUCGGGUG [Fam2.2 aminoacylation ribozyme variant],39,4.33,6.49,4.67,7.74,6.22
AUUCACCUGGGUCGUCGGGUG [Fam2.2 aminoacylation ribozyme variant],6.66,1.93,2.46,2.48,2.3,2.11
AUUCACCUGGUUCAUCGGGUG [Fam2.2 aminoacylation ribozyme variant],15.2,2.42,3.08,3.1,3.19,3.62
AUUCACCUUGCUCAUCGGGUG [Fam2.2 aminoacylation ribozyme variant],10.7,1.84,1.94,2,2.63,2.01
AUUCACCUUGGUCAACGGGUG [Fam2.2 aminoacylation ribozyme variant],20.3,2.22,3.19,2.2,4.24,3.03
AUUCACCUUGGUCAGCGGGUG [Fam2.2 aminoacylation ribozyme variant],25.6,2.71,3.99,3.16,5.32,3.71
AUUCACCUUGGUCAUCGGGAG [Fam2.2 aminoacylation ribozyme variant],0.73,1.07,1.05,1.05,1.09,1.27
AUUCACCUUGGUCAUCGGGUC [Fam2.2 aminoacylation ribozyme variant],4.87,1.2,1.32,1.58,1.15,1.28
AUUCACCUUGGUCGUCGGGUG [Fam2.2 aminoacylation ribozyme variant],11.3,1.9,1.86,1.81,2.18,2.01
AUUCACCUUGGUUAUCGGGUG [Fam2.2 aminoacylation ribozyme variant],35.2,3.26,5.13,3.85,5.92,5.27
AUUCACCUUGUUCAUCGGGUG [Fam2.2 aminoacylation ribozyme variant],15.2,2.01,2.72,2.42,3.38,2.91
AUUCACCUUUGUCAUCGGGUG [Fam2.2 aminoacylation ribozyme variant],25.4,3.14,4.43,3.11,5.41,4.62
AUUCACGUAGGCCAUCGGGUG [Fam2.2 aminoacylation ribozyme variant],48.1,3.71,4.29,5.3,4.12,5.37
AUUCACGUAGGUCAACGGGUG [Fam2.2 aminoacylation ribozyme variant],21.1,2.77,3.95,3.15,4.96,4.47
AUUCACGUAGGUCAUCCGGUG [Fam2.2 aminoacylation ribozyme variant],120,7.72,13.2,8.57,17,12.1

Sequence,self-aminoacylation (biotinyl-Phe-oxazolone),self-aminoacylation (biotinyl-Ile-oxazolone),self-aminoacylation (biotinyl-Met-oxazolone),self-aminoacylation (biotinyl-Val-oxazolone),self-aminoacylation (biotinyl-Leu-oxazolone),self-aminoacylation (biotinyl-Trp-oxazolone)
AUUCACGUAGGUCAUCGGCUG [Fam2.2 aminoacylation ribozyme variant],6.6,2.35,2.35,3.36,2.91,3.17
AUUCACGUAGGUCAUGGGGUG [Fam2.2 aminoacylation ribozyme variant],24.6,3.34,3.45,4.23,5.48,4.5
AUUCACGUAGGUCUUCGGGUG [Fam2.2 aminoacylation ribozyme variant],40.1,3.86,4.21,5.24,4.82,4.88
AUUCACUUACGUCAUCGGGUG [Fam2.2 aminoacylation ribozyme variant],38.4,3.35,5.61,3.36,7.03,5.63
AUUCACUUAGGACAUCGGGUG [Fam2.2 aminoacylation ribozyme variant],14.1,2.33,3.21,2.33,3.44,2.78
AUUCACUUAGGUCAUCGGGAG [Fam2.2 aminoacylation ribozyme variant],0.746,1.02,1.1,1.11,1.22,0.745
AUUCACUUAGGUCAUCGGGCG [Fam2.2 aminoacylation ribozyme variant],4.38,2.55,3.18,3.17,4.02,3.91
AUUCACUUAGGUCAUCGGGUG [Fam2.2 aminoacylation ribozyme variant],48.3,3.87,6.36,3.86,8.1,6.28
AUUCACUUAGGUCUUCGGGUG [Fam2.2 aminoacylation ribozyme variant],22.7,2.96,3.58,2.71,3.95,4.2
AUUCACUUAGGUUAUCGGGUG [Fam2.2 aminoacylation ribozyme variant],18.6,2.37,3.33,2.5,4.03,3.68
AUUCAGCCAGGUCAUCGGGUG [Fam2.2 aminoacylation ribozyme variant],59.7,5.25,8.99,5.4,10.7,9.91
AUUCAGCUAAGUCAUCGGGUG [Fam2.2 aminoacylation ribozyme variant],24.6,2.96,3,2.96,3.99,2.81
AUUCAGCUAGGGCAUCGGGUG [Fam2.2 aminoacylation ribozyme variant],64.3,4.72,6.69,4.65,7.92,6.75
AUUCAGCUAGGUCAUCAGGUG [Fam2.2 aminoacylation ribozyme variant],8.1,1.63,2.38,2.04,2.39,2.09
AUUCAGCUAGGUCAUCGGGUG [Fam2.2 aminoacylation ribozyme variant],35,3.7,4.92,4.2,5.83,5.34
AUUCAGCUAGGUCAUGGGGUG [Fam2.2 aminoacylation ribozyme variant],17.8,2.74,3.03,2.98,2.94,3.72
AUUCAGCUAGGUCCUCGGGUG [Fam2.2 aminoacylation ribozyme variant],55.4,4.67,6.2,4.46,9.02,6.56
AUUCAGCUAGGUUAUCGGGUG [Fam2.2 aminoacylation ribozyme variant],60.4,5.01,7.59,5.16,9.36,8.86
AUUCAGCUAGUUCAUCGGGUG [Fam2.2 aminoacylation ribozyme variant],52.3,5.34,7.01,4.95,9.16,7.26
AUUCAGGUAGGUCAUCGGGUG [Fam2.2 aminoacylation ribozyme variant],30.7,3.68,4.59,4.23,5.83,5.12
AUUCAUAUAGGUCAUCGGGUG [Fam2.2 aminoacylation ribozyme variant],34.2,3.42,4.9,3.28,6.04,5.78
